Results on 28 molecules are retold here after US20200095340A1.

Where a chain is given by its changes, count along the chain named.

As a reminder, the Kd is the concentration at which binding is half-saturated. Read a high Kd as a looser complex.

The target in the experiment is biotinylated human DLL3 protein expressed as a human IgG1 fusion protein (human) (UniProt Q9NYJ7). The experiment is described as follows: Octet BLI; biotinylated huDLL3-IgG1 fusion on streptavidin tips; single 50 nM; conditioned medium. Background: Biolayer interferometry detects binding as a change in optical thickness at a sensor tip.
biotinylated human DLL3 protein expressed as a human IgG1 fusion protein (human), sequence (Q9NYJ7 other isoform, or with tags, fused parts or gaps): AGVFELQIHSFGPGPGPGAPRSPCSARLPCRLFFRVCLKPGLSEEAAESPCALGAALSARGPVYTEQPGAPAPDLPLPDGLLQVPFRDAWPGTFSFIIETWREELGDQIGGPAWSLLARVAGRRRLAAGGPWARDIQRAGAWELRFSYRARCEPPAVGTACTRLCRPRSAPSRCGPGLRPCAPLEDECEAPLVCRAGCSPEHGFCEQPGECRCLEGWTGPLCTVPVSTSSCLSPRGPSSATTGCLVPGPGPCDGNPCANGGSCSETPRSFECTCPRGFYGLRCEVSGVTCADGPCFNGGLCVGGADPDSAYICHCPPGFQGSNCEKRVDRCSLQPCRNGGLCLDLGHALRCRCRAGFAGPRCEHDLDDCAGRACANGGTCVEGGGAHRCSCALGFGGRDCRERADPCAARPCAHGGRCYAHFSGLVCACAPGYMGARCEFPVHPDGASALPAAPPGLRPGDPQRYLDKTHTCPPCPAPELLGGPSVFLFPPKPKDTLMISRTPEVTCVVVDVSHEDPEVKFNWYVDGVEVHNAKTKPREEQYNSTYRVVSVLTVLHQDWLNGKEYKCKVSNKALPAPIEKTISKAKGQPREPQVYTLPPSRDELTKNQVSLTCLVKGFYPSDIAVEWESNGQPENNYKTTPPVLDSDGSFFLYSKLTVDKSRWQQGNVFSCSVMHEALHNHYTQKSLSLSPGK

B1: anti-DLL3 trispecific protein 4B09 (protein, part only; not given: anti-CD3 fragment and anti-albumin sdAb, part only)
chain, part: EVQLVESGGGLVQPGGSLTLSCAASGSSVSFLSMAWYRQAPGKKRELVAGISADGSTDYISSVKGRFTISRDNAKNSVYLQMNSLRAEDTAVYYCYAYSWTTRYTYWGQGTLVTVSSGGGGSGGGSGGGGSGGGSHHHHHH
Molecule B1 registered a Kd of 5.4 nM.

B2: anti-DLL3 trispecific protein 4C011 (protein, part only; not given: anti-CD3 and anti-albumin domains, part only)
chain, part: B1 chain, part with S28R, D58V, S61D, S99R, T102R
B2 returned a Kd of 6 nM. This Kd and that of the molecule before are within 1.5-fold of each other.

B3: anti-DLL3 trispecific protein 3C08 (protein, part only; not given: anti-CD3 fragment and anti-albumin sdAb, part only)
chain, part: B1 chain, part with S30K, A53L, S61D, S99R, T102G
Take B3: the Kd was found to be 5.9 nM. The Kd values of the last two molecules are within 1.5-fold of each other.

B4: anti-DLL3 trispecific protein 4D08 (protein, part only; not given: anti-CD3 and anti-albumin domains, part only)
chain, part: B1 chain, part with S30N, D58H, S61D, S99R, T101L
With B4, the Kd stood at 5.9 nM.

B5: anti-DLL3 trispecific protein 4F010 (protein, part only; not given: anti-CD3 and anti-albumin domains, part only)
chain, part: B1 chain, part with A53I, S61K, S99R, T105R
B5 registered a Kd of 5.8 nM.

B6: anti-DLL3 trispecific protein 4A011 (protein, part only; not given: CD3 binder and albumin binder, part only)
chain, part: B1 chain, part with S28K, D58T, S61D, S99R, T101K
In turn, B6 yielded an equilibrium dissociation constant (Kd) of 5.6 nM.

B7: anti-DLL3 trispecific protein 3D07 (protein, part only; not given: anti-CD3 and anti-albumin domains, part only)
chain, part: B1 chain, part with S30R, S61D
Turning to B7, the Kd came to 5.9 nM.

B8: anti-DLL3 trispecific protein 4D011 (protein, part only; not given: anti-CD3 fragment and anti-albumin sdAb, part only)
chain, part: B1 chain, part with S30R, A53V, S61D, S99R, T101R
The molecule B8 had a Kd of 5.8 nM. The Kd values of the last two molecules are within 1.5-fold of each other.

B9: anti-DLL3 trispecific protein 1C05 (protein, part only; not given: CD3 binder and albumin binder, part only)
chain, part: EVQLVESGGGLVQPGGSLTLSCVASGSTSSINAMAWYRRAPGKQRELVAGISSDGSKVYADSVKGRFTISRDNAKNSVYLQMNSLRAEDTAVYYCYYFRTVSGSHMRYWGQGTLVTVSSGGGGSGGGSGGGGSGGGSHHHHHH
As to B9, the Kd was 5.3 nM. The Kd values of the last two molecules are within 1.5-fold of each other.

B10: anti-DLL3 trispecific protein 1H01 (protein, part only; not given: CD3 binder and albumin binder, part only)
chain, part: B9 chain, part with V48A, G55N, V101R, H105S
B10 displayed a Kd of 5.7 nM.

B11: anti-DLL3 trispecific protein 1B09 (protein, part only; not given: anti-CD3 and anti-albumin domains, part only)
chain, part: B9 chain, part with A60V, H105S
Molecule B11 registered a Kd of 5.4 nM.

B12: anti-DLL3 trispecific protein 2B07 (protein, part only; not given: CD3 fragment and albumin sdAb, part only)
chain, part: B9 chain, part with M34F, A35G, S102R, H105S
The molecule B12 came in with a dissociation constant Kd of 5.7 nM.

B13: anti-DLL3 trispecific protein 2E02 (protein, part only; not given: anti-CD3 fragment and anti-albumin sdAb, part only)
chain, part: B9 chain, part with S30A, A35G, A60V, H105S, M106Q
Molecule B13 yielded a dissociation constant (Kd) of 6 nM.

B14: anti-DLL3 trispecific protein 1F012 (protein, part only; not given: anti-CD3 fragment and anti-albumin sdAb, part only)
chain, part: B9 chain, part with S27L, A35G, A60Q, V101N, H105S
As to B14, the dissociation constant Kd amounted to 5.8 nM.

B15: anti-DLL3 trispecific protein 1B011 (protein, part only; not given: CD3 binder and albumin binder, part only)
chain, part: B9 chain, part with S30R, A35G, S102Y, H105S
B15 registered an equilibrium dissociation constant (Kd) of 5.7 nM.

B16: anti-DLL3 trispecific protein 1D01 (protein, part only; not given: CD3 binder and albumin binder, part only)
chain, part: B9 chain, part with S30D, A35G, G55K, S102R, H105S
B16 yielded a Kd of 5.8 nM.

B17: anti-DLL3 trispecific protein 2D011 (protein, part only; not given: anti-CD3 fragment and anti-albumin sdAb, part only)
chain, part: B9 chain, part with S27T, A35G, S102W, H105S
In turn, B17 had a Kd of 5.4 nM.

B18: anti-DLL3 trispecific protein 1A06 (protein, part only; not given: anti-CD3 fragment and anti-albumin sdAb, part only)
chain, part: B9 chain, part with A35G, V48A, K57S, H105S, M106K
B18 came in with a Kd of 5.6 nM.

B19: anti-DLL3 trispecific protein 2A04 (protein, part only; not given: anti-CD3 fragment and anti-albumin domain, part only)
chain, part: B9 chain, part with A60T, V101T, H105S
Regarding B19, the dissociation constant Kd turned out to be 5.6 nM.

B20: anti-DLL3 trispecific protein 1C03 (protein, part only; not given: anti-CD3 and anti-albumin domains, part only)
chain, part: B9 chain, part with G55N, S102G, H105S
B20 yielded a Kd of 6.1 nM.

B21: anti-DLL3 trispecific protein 1D03 (protein, part only; not given: CD3 binder and albumin binder, part only)
chain, part: B9 chain, part with M34I, A35G, Y59L, T100I, H105S, R107G
Consider B21, for which the Kd worked out at 5.8 nM.

B22: anti-DLL3 trispecific protein 1F05 (protein, part only; not given: CD3 fragment and albumin sdAb, part only)
chain, part: B9 chain, part with S29R, A35G, R99H, H105S
Molecule B22 registered a dissociation constant Kd of 5.8 nM.

B23: anti-DLL3 trispecific protein 1E010 (protein, part only; not given: anti-CD3 fragment and anti-albumin sdAb, part only)
chain, part: B9 chain, part with T28V, A35G, A60I, S104L, H105S
As to B23, the Kd worked out at 5.7 nM.

B24: anti-DLL3 trispecific protein 2G03 (protein, part only; not given: CD3 binder and albumin binder, part only)
chain, part: B9 chain, part with A35G, K57L, H105S, Y108A
In turn, B24 returned a Kd of 5.6 nM.

B25: anti-DLL3 trispecific protein 2D07 (protein, part only; not given: anti-CD3 fragment and anti-albumin sdAb, part only)
chain, part: B9 chain, part with M34V, A35G, S56T, A60R, S102Q, H105S
For the molecule B25, the Kd stood at 6 nM.

B26: anti-DLL3 trispecific protein 2F03 (protein, part only; not given: anti-CD3 fragment and anti-albumin sdAb, part only)
chain, part: B9 chain, part with V48A, G55N, S102G, H105S
The molecule B26 had an equilibrium dissociation constant (Kd) of 5.9 nM.

B27: anti-DLL3 trispecific protein 2H03 (protein, part only; not given: CD3 binder and albumin binder, part only)
chain, part: B9 chain, part with T100Q, H105S
B27 had a Kd of 5.3 nM.

B28: anti-DLL3 trispecific protein 2C08 (protein, part only; not given: anti-CD3 and anti-albumin domains, part only)
chain, part: B9 chain, part with S30R, A35G, A60Q, T100R, H105S
B28 registered a dissociation constant Kd of 6.1 nM.
